Some results are limits rather than exact numbers.

Test [1] has as its target HLA-A*02:01. The test can be described thus: IEDB peptide-MHC binding, purified MHC/competitive/fluorescence; filed as Kd, often an IC50 or EC50 that approximates it; ≥ and ≤ were set here for values at or beyond the usual limits of such assays. As to conditions: source organism: Orthomarburgvirus marburgense.
Test [2] deals with HLA-A*69:01. The description is as above. As to conditions: source organism: Orthomarburgvirus marburgense.
A further test concerns the target HLA-A*26:02. The description is as above. As to conditions: source organism: Orthomarburgvirus marburgense.
The target in a further test is HLA-B*35:01. The description is as above. As to conditions: source organism: Orthomarburgvirus marburgense.
The target of a further test is HLA-B*15:17. The description is as above.
The next test addresses HLA-A*02:06. The description is as above.
For test [3], the target named is HLA-A*68:02. Described as above. As to conditions: source organism: Orthomarburgvirus marburgense.
Test [4] deals with HLA-A*26:03. The test is described as above. As to conditions: source organism: Orthomarburgvirus marburgense.
The target of another test is HLA-B*48:01. Description: IEDB peptide-MHC binding, purified MHC/direct/fluorescence; filed as Kd, often an IC50 or EC50 that approximates it; ≥ and ≤ were set here for values at or beyond the usual limits of such assays.
The target of a further test is HLA-B*58:01. Described as above.
Another test concerns the target HLA-B*15:01. Described as above.
Another test concerns the target HLA-B*07:02. Described as above.
Another test addresses HLA-B*18:01. The test is described as above.
Another test concerns the target HLA-B*40:01. Described as above. As to conditions: source organism: Marburg virus - Musoke, Kenya, 1980.
In the next test the target is HLA-A*03:01. The test is described as above.
The next test has as its target HLA-A*01:01. The description is as above.
Another test deals with HLA-B*27:05. Described as above.
Test [5] addresses HLA-A*31:01. The description is as above. As to conditions: source organism: Marburg virus - Musoke, Kenya, 1980.
For another test, the target named is HLA-B*57:01. The description is as above.
For test [6], the target named is HLA-B*46:01. The description is as above. As to conditions: source organism: Marburg virus - Musoke, Kenya, 1980.
Test [7] has as its target HLA-A*11:01. Described as above. As to conditions: source organism: Marburg virus - Musoke, Kenya, 1980.
For another test, the target named is HLA-B*08:02. The description is as above. As to conditions: source organism: Ravn virus - Ravn, Kenya, 1987.
For the next test, the target named is HLA-B*15:09. The test can be described thus: IEDB peptide-MHC binding, purified MHC/competitive/fluorescence; filed as Kd, often an IC50 or EC50 that approximates it; ≥ and ≤ were set here for values at or beyond the usual limits of such assays. As to conditions: source organism: Lyssavirus rabies.
In a further test the target is HLA-A*30:01. The description is as above. As to conditions: source organism: Lyssavirus rabies.
Test [8] deals with HLA-A*31:01. Described as above. As to conditions: source organism: Lyssavirus rabies.
Test [9] deals with HLA-A*11:01. The description is as above. As to conditions: source organism: Lyssavirus rabies.
The target in the next test is HLA-B*08:01. Description: IEDB peptide-MHC binding, purified MHC/direct/fluorescence; filed as Kd, often an IC50 or EC50 that approximates it; ≥ and ≤ were set here for values at or beyond the usual limits of such assays. As to conditions: source organism: Lyssavirus rabies.
Test [10] has as its target HLA-A*02:01. Described as above. As to conditions: source organism: Lyssavirus rabies.
The target in test [11] is HLA-A*69:01. Described as above. As to conditions: source organism: Lyssavirus rabies.
Another test addresses HLA-B*73:01. The test is described as above. As to conditions: source organism: Lyssavirus rabies.
The target in test [12] is HLA-A*68:02. The test is described as above. As to conditions: source organism: Lyssavirus rabies.
Test [13] deals with HLA-A*26:03. The description is as above. As to conditions: source organism: Lyssavirus rabies.
The next test addresses HLA-B*83:01. The test can be described thus: IEDB peptide-MHC binding, purified MHC/competitive/fluorescence; filed as Kd, often an IC50 or EC50 that approximates it; ≥ and ≤ were set here for values at or beyond the usual limits of such assays. As to conditions: source organism: Giardia lamblia ATCC 50803.
A further test has as its target HLA-C*14:02. The test is described as above. As to conditions: source organism: Giardia lamblia ATCC 50803.
The target of the next test is HLA-C*04:01. The test is described as above. As to conditions: source organism: Giardia lamblia ATCC 50803.
The target of a further test is HLA-A*32:07. Described as above. As to conditions: source organism: Giardia lamblia ATCC 50803.
In the next test the target is HLA-A*32:15. The description is as above. As to conditions: source organism: Giardia lamblia ATCC 50803.
Another test addresses HLA-B*45:06. Described as above. As to conditions: source organism: Giardia lamblia ATCC 50803.
Test [14] concerns the target HLA-B*46:01. The test is described as above. As to conditions: source organism: Giardia lamblia ATCC 50803.
In the next test the target is HLA-B*15:42. Described as above. As to conditions: source organism: Giardia lamblia ATCC 50803.
In the next test the target is HLA-C*06:02. Described as above. As to conditions: source organism: Giardia lamblia ATCC 50803.
The next test deals with HLA-A*68:23. The description is as above. As to conditions: source organism: Giardia lamblia ATCC 50803.
A further test concerns the target HLA-C*12:03. Description: IEDB peptide-MHC binding, purified MHC/direct/fluorescence; filed as Kd, often an IC50 or EC50 that approximates it; ≥ and ≤ were set here for values at or beyond the usual limits of such assays. As to conditions: source organism: Giardia lamblia ATCC 50803.
The next test has as its target HLA-A*24:03. The description is as above. As to conditions: source organism: Giardia lamblia ATCC 50803.
[15] abbreviates: source organism: Orthomarburgvirus marburgense.
[16] abbreviates: source organism: Marburg virus - Musoke, Kenya, 1980.
Setting [17] is: source organism: Lyssavirus rabies.

Consider TVLEFILQK, for which the Kd (usually the concentration at which binding is half-saturated) was 1170 nM with HLA-A*02:01 [1]; 827 nM with HLA-A*69:01 [2]; ≥ 20000 nM with HLA-A*26:02; ≥ 20000 nM with HLA-B*35:01; ≥ 20000 nM with HLA-B*15:17 (setting [15]); 776 nM with HLA-A*02:06 (setting [15]). The Kd with HLA-A*68:02 [3] was 3880 nM; in the test with HLA-A*26:03 [4], ≥ 20000 nM; with HLA-B*48:01 (setting [16]), ≥ 20000 nM; with HLA-B*58:01 (setting [16]) it was ≥ 20000 nM; in the test with HLA-B*15:01 (setting [16]), ≥ 20000 nM; with HLA-B*07:02 (setting [16]), ≥ 20000 nM. Moreover, the Kd with HLA-B*18:01 (setting [16]) is ≥ 20000 nM; with HLA-B*40:01, ≥ 20000 nM; with HLA-A*03:01 (setting [16]), 141 nM; with HLA-A*01:01 (setting [16]) it was ≥ 20000 nM; with HLA-B*27:05 (setting [16]), ≥ 20000 nM; with HLA-A*31:01 [5], 119 nM. The Kd in the test with HLA-B*57:01 (setting [16]) is ≥ 20000 nM; with HLA-B*46:01 [6], ≥ 20000 nM; with HLA-A*11:01 [7], 2.3 nM; with HLA-B*08:02 it was ≥ 20000 nM.
RQMKSGGRF: the Kd was ≥ 20000 nM with HLA-B*15:09; ≥ 20000 nM with HLA-A*30:01; ≥ 20000 nM with HLA-A*31:01 [8]; 631 nM with HLA-B*15:17 (setting [17]); 476 nM in the test with HLA-A*02:06 (setting [17]); ≥ 20000 nM in the test with HLA-A*11:01 [9]. For the same sequence, the Kd in the test with HLA-B*08:01 is ≥ 20000 nM; with HLA-A*02:01 [10], ≥ 20000 nM; with HLA-A*69:01 [11], ≥ 20000 nM; in the test with HLA-B*48:01 (setting [17]), 1620 nM; with HLA-B*58:01 (setting [17]), ≥ 20000 nM; with HLA-B*15:01 (setting [17]), 119 nM. Also, the Kd with HLA-B*07:02 (setting [17]) is ≥ 20000 nM; in the test with HLA-B*18:01 (setting [17]), ≥ 20000 nM; in the test with HLA-A*03:01 (setting [17]), ≥ 20000 nM; with HLA-A*01:01 (setting [17]), ≥ 20000 nM; with HLA-B*27:05 (setting [17]) it was 275 nM; with HLA-B*73:01 it was ≥ 20000 nM. In addition, the Kd in the test with HLA-B*57:01 (setting [17]), with HLA-A*68:02 [12] and with HLA-A*26:03 [13] was ≥ 20000 nM throughout.
For YTFFFTQYF, the Kd in the test with HLA-B*83:01 was ≥ 5000 nM; in the test with HLA-C*14:02 it was 79.4 nM; with HLA-C*04:01, ≥ 5000 nM; with HLA-A*32:07 it was 34.5 nM; with HLA-A*32:15, 91.1 nM; in the test with HLA-B*45:06 it was ≥ 5000 nM. Further, the equilibrium dissociation constant (Kd) with HLA-B*46:01 [14] is 342 nM; in the test with HLA-B*15:42 it was ≥ 5000 nM; with HLA-C*06:02, 1390 nM; with HLA-A*68:23 it was ≤ 0.1 nM; in the test with HLA-C*12:03, 44 nM; with HLA-A*24:03, 28.5 nM.

For the origin of these results see the Immune Epitope Database (IEDB).
